For this series the following is noted: Mus musculus, pH 7.5, Thermal, Potassium phosphate 50 mM, KCl 50 mM, reversible: yes, structure 1MBG.

Transcriptional activator Myb V103L, P06876, sequence (P06876 whole entry V103L): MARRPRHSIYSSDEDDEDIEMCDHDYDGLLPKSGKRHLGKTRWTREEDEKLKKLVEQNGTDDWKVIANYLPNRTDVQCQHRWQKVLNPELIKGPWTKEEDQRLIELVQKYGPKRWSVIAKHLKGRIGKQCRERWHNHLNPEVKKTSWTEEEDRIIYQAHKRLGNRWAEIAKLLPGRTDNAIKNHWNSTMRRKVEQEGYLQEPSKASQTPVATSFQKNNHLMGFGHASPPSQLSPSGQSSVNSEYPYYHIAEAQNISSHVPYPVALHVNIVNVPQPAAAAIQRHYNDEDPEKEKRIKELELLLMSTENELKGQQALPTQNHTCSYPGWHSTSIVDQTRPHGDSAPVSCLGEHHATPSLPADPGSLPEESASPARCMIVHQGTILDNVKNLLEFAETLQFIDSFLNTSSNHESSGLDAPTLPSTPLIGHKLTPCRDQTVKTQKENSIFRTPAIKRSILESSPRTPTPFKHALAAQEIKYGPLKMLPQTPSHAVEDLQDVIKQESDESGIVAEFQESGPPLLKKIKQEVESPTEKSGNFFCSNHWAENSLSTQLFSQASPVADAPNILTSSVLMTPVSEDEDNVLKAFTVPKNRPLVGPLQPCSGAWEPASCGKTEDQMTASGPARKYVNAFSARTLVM
Transcriptional activator Myb V103I, P06876, sequence (P06876 whole entry V103I): as the sequence (P06876 whole entry V103L) above, with L103I counted along it
Transcriptional activator Myb V103A, P06876, sequence (P06876 whole entry V103A): as the sequence (P06876 whole entry V103L) above, with L103A counted along it

In the case of “Transcriptional activator Myb V103A, P06876”, under “CD”, the Tm was 2.8 °C and the “change of melting temperature, mutant - wild type (higher = more stable)” value (“change of melting temperature, mutant” for short) was -36.8 °C.
For the substance “Transcriptional activator Myb V103I, P06876”, under “CD”, the Tm was 46.6 °C and the “change of melting temperature, mutant” value was determined as 7 °C. Also, under “DSC”, the Tm stood at 47.5 °C and the “unfolding enthalpy (calorimetric)” value is 32.1 kcal/mol.
Regarding “Transcriptional activator Myb V103L, P06876”, for the setting “CD”, the midpoint of thermal melting (Tm) stood at 62 °C and the “change of melting temperature, mutant” value came to 22.4 °C. Further, for the setting “DSC”, the Tm was 62 °C and the “unfolding enthalpy (calorimetric)” value amounted to 41.8 kcal/mol.

Usually Tm stands for the temperature at which the thermal transition is half complete.

Source of the values: FireProtDB (doi:10.1006/jmbi.1999.3099).
